From PMC5506826

How the values were obtained:
Conditions in all cases: EMSA: 40 mM Tris-HCl pH 8, 100 mM KCl, 0.5 mM DTT, 0.05% NP40, 2 mM spermidine, 0.2 mM EDTA, 8% glycerol, 15 ng/ul herring sperm DNA, 30 min room temperature …
[1] = tested on: T1, 6His-SUMO-RegA (Acidithiobacillus ferrooxidans ATCC 23270T), ORF:158a6978; assay: EMSA
T1 sequence: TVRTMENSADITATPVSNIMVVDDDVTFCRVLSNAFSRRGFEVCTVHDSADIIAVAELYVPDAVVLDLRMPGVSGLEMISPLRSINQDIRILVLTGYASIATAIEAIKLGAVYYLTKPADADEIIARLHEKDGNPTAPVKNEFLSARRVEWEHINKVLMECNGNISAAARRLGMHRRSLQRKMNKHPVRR

[2] = tested on: T2, RegA-HTH-6His (Acidithiobacillus ferrooxidans ATCC 23270T), ORF:158a6978; assay: EMSA
T2 sequence: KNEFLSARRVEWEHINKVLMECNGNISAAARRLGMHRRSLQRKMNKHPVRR

[3] = tested on: T1, 6His-SUMO-RegA (Acidithiobacillus ferrooxidans ATCC 23270T), ORF:158a6978; assay: DLS

Sequence: CATTATGCGGCTGGCACAATACATGCATAAAACATCTCGTGCTGCCGCGGGATTCTCATTTTCATTTACTCATTGAATATCATAAGCGGGATGCAGCCATAAATATAACGCTGGTTGTGTTATTGGGAGCGAGCATTTAATTCTGTTGATATCGTTTATGGGAATAACAAAAGTGGAGACGCAGCTGAAAAAGCGAAGCTGATGACAGAGTACGTTATACCTCACCAAATGGATTGGAGACTTGATATGCC (double strand) [tet 251 bp]
- binding [1]: binds

Sequence: CCCCAGTCATGAAGCCTACCGTGGTAATCGCCCCCCTTGCGGTTAAGCTAACTACTTCTGGTAAACCCCACTTCCATGGTGTGACGGGCGGTGTG (double strand) [rrs 16S 95 bp]
- binding [2]: no binding
- binding [3]: no binding

Sequence: TGTCAGTTTTTGGGACATTTTAGTGATCGCGGCATATAATTAAAAGGCCAGATTAACATGTTTAAATAACGTTAGCACATAATTCTTTTCTTATGTTCTTTATTTAAGTTATTGTGTTTTAGTGGATCCGTATCGTGATG (double strand) [rus PI 140 bp]
- binding [1]: binds
